{"source": "patent US7419667B2", "about": "“Drug for cancer therapy” (Morinaga Milk Industry Co. Ltd., priority 2004, dated 2008)", "system": "human Burkitt lymphoma Raji cells", "experiment": "Test Example 1: cytotoxic action of complement and antibody drug (rituximab) with sample added, PI method", "format": "cell-based", "conditions": "for Cytotoxic activity (%): 100 μl/well of 1000 μg/ml sample, 1 hour, PI", "experimental": "Test Sample 1 was prepared with the lactoferrin hydrolysate mixture prepared in Preparation Example 1, of which concentration was adjusted to 1000 μg/ml in RPMI 1640 medium (Sigma, catalog number: R8758) containing 7.5% fetal bovine serum (Gibco, catalog number: 10099-141) and 1% penicillin-streptomycin (Gibco, catalog number: 15070-063) [henceforth this solution is referred to as “dilution solution”]. Furthermore, Control Sample 1 was prepared by diluting lactoferrin to a concentration of 1000 μg/ml with the dilution solution.\nAs target cells for measurement of cytotoxic action of complement and antibody drug, human Burkitt lymphoma Raji cells (ATCC CCL-86, obtained from American Type Culture Collection (10801 University Boulevard, Manassas, Va. 20110-2209, USA)) were used, and the cells were suspended at a density of 2×10^6 cells/ml by using the dilution solution to prepare a Raji cell suspension. As an antibody drug solution, rituximab (Zenyaku Kogyo, sold by Nippon Roche) that recognizes the CD20 antigen was used, and it was prepared at a concentration of 200 μg/ml using the dilution solution. As a complement solution, Human serum AB (Cosmobio, catalog number: 832000027) was used. These antibody drug solution and complement solution were also used for Test Examples 2 to 5 described below.\nViability determination of the cells was performed by the method using propidium iodide (PI, Dojindo, catalog number: P378) [Cytometry, Vol. 8, No. 4, pp. 421-426, 1987] or the method using Calcein-AM (Dojindo, catalog number: 341-07901) [Apoptosis, Vol. 3, No. 3, pp. 195-202, 1998].\nThe Raji cell suspension was added to each well of a 24-well culture plate (NUNC, catalog number: 143982) in a volume of 100 μl each (2×10^5 cells each). The 24 wells were divided into four groups, to wells (6 wells) of one group among them, 50 μl/well of the antibody drug solution and 250 μl/well of dilution solution were added as “Addition of antibody drug”. Further, to wells (6 wells) of another group, 100 μl of the complement solution and 200 μl of the dilution solution were added as “Addition of complement”. Furthermore, to wells (6 wells) of another group, 50 μl of the antibody drug solution, 100 μl of the complement solution and 150 μl of the dilution solution were added as “Addition of antibody drug+complement”. To wells (6 wells) of the remaining one group, 300 μl of the dilution solution was added as “No addition”.\nFor the aforementioned four groups, 100 μl/well of Test Sample 1 (4 groups×2 wells), Control Sample 1 (4 groups×2 wells) or the dilution solution (4 groups×2 wells) mentioned above was added as “Test Sample Group 1”, “Control Sample Group 1” and “Negative Sample Group 1”, respectively.\nBy using the 24-well plate prepared as described above, the cells were cultured under the conditions of 37° C. and 5% carbon dioxide (CO2) for 1 hour using an incubator (Napco, catalog number: 5300). Then, the cells of each sample group were collected, and the rate of dead cells in each was examined by the aforementioned method using PI. Cytotoxic activity was calculated based on a case where all the target cells were killed, which was taken as 100%.", "data": [{"molecule": "Control Sample Group 1: Undecomposed commercially available bovine lactoferrin (Morinaga Milk Industry Co., Ltd.) used as control (protein, listed as Bos taurus, sig_peptide (1)...(19) Lactoferrin) MKLFVPALLSLGALGLCLAAPRKNVRWCTISQPEWFKCRRWQWRMKKLGAPSITCVRRAFALECIRAIAEKKADAVTLDGGMVFEAGRDPYKLRPVAAEIYGTKESPQTHYYAVAVVKKGSNFQLDQLQGRKSCHTGLGRSAGWIIPMGILRPYLSWTESLEPLQGAVAKFFSASCVPCIDRQAYPNLCQLCKGEGENQCACSSREPYFGYSGAFKCLQDGAGDVAFVKETTVFENLPEKADRDQYELLCLNNSRAPVDAFKECHLAQVPSHAVVARSVDGKEDLIWKLLSKAQEKFGKNKSRSFQLFGSPPGQRDLLFKDSALGFLRIPSKVDSALYLGSRYLTTLKNLRETAEEVKARYTRVVWCAVGPEEQKKCQQWSQQSGQNVTCATASTTDDCIVLVLKGEADALNLDGGYIYTAGKCGLVPVLAENRKSSKHSSLDCVLRPTEGYLAVAVVKKANEGLTWNSLKDKKSCHTAVDRTAGWNIPMGLIVNQTGSCAFDEFFSQSCAPGADPKSRLCALCAGDDQGLDKCVPNSKEKYYGYTGAFRCLAEDVGDVAFVKNDTVWENTNGESTADWAKNLNREDFRLLCLDGTRKPVTEAQSCHLAVAPNHAVVSRSDRAAHVKQVLLHQQALFGKNGKNCPDKFCLFKSETKNLLFNDNTECLAKLGGRPTYEEYLGTEYVTAIANLKKCSTSPLLEACAFLTR", "values": [{"measurement": "change of cytotoxic activity compared with the negative sample group", "setting": "Addition of antibody drug + complement", "result": "did not increase"}, {"measurement": "Cytotoxic activity (%)", "setting": "Addition of antibody drug + complement (rituximab, human serum AB)", "result": 24.3, "unit": "%"}, {"measurement": "Cytotoxic activity (%)", "setting": "Addition of antibody drug only", "result": 1.0, "unit": "%"}, {"measurement": "Cytotoxic activity (%)", "setting": "Addition of complement only", "result": 1.2, "unit": "%"}, {"measurement": "Cytotoxic activity (%)", "setting": "No addition (no antibody drug, no complement)", "result": 1.0, "unit": "%"}]}]}
